Assay results reported in US20250145711A1 (Janssen / Centocor, published 2025).
Positions count from the first letter of the chain named. Names and notes keep the numbering of the source.

B1: BC3B103 (bispecific antibody, human IgG1, kappa, L234A L235A)
chain: QVQLVQSGAEVKKPGSSVKVSCKASGYTFTRSTMHWVKQAPGQGLEWIGYINPSSAYTNYNQKFQGRVTLTADKSTSTAYMELSSLRSEDTAVYYCASPQVHYDYAGFPYWGQGTLVTVSSGGSEGKSSGSGSESKSTGGSEIVLTQSPATLSASPGERVTLSCSASSSVSYMNWYQQKPGQAPRRWIYDSSKLASGVPARFSGSGSGRDYTLTISSLEPEDFAVYYCQQWSRNPPTFGGGTKVEIKEPKSSDKTHTCPPCPAPEAAGGPSVFLFPPKPKDTLMISRTPEVTCVVVSVSHEDPEVKFNWYVDGVEVHNAKTKPREEQYNSTYRVVSVLTVLHQDWLNGKEYKCKVSNKALPAPIEKTISKAKGQPREPQVYVYPPSREEMTKNQVSLTCLVKGFYPSDIAVEWESNGQPENNYKTTPPVLDSDGSFALVSKLTVDKSRWQQGNVFSCSVMHEALHNHYTQKSLSLSPG
heavy: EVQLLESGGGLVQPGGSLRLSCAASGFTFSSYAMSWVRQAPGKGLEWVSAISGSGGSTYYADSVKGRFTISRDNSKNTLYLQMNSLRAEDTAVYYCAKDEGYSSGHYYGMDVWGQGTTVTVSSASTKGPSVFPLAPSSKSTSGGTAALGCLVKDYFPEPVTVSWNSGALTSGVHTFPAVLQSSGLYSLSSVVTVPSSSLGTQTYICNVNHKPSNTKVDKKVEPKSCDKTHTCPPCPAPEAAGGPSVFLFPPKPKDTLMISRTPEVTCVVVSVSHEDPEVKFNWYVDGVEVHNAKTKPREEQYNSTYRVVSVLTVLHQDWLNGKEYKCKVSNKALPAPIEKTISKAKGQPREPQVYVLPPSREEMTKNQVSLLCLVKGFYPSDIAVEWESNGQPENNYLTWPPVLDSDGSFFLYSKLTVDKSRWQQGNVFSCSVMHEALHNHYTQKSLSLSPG
light: EIVLTQSPGTLSLSPGERATLSCRASQSISSSFLTWYQQKPGQAPRLLIYGASSRATGIPDRFSGGGSGTDFTLTISRLEPEDFAVYYCQHYGSSPMYTFGQGTKLEIKRTVAAPSVFIFPPSDEQLKSGTASVVCLLNNFYPREAKVQWKVDNALQSGNSQESVTEQDSKDSTYSLSSTLTLSKADYEKHKVYACEVTHQGLSSPVTKSFNRGEC
notes: IgG1 BCMAxCD3; HC1: CD3B2030-N106A HL scFv-Fc; also called BC3B103.001; B2030 HL NtoA
B2: BC3B118 (bispecific antibody, human IgG1, kappa, L234A L235A)
chain: EIVLTQSPATLSASPGERVTLSCSASSSVSYMNWYQQKPGQAPRRWIYDSSKLASGVPARFSGSGSGRDYTLTISSLEPEDFAVYYCQQWSRNPPTFGGGTKVEIKGGSEGKSSGSGSESKSTGGSQVQLVQSGAEVKKPGSSVKVSCKASGYTFTRSTMHWVKQAPGQGLEWIGYINPSSAYTNYNQKFQGRVTLTADKSTSTAYMELSSLRSEDTAVYYCASPQVHYDYGGFPYWGQGTLVTVSSEPKSSDKTHTCPPCPAPEAAGGPSVFLFPPKPKDTLMISRTPEVTCVVVSVSHEDPEVKFNWYVDGVEVHNAKTKPREEQYNSTYRVVSVLTVLHQDWLNGKEYKCKVSNKALPAPIEKTISKAKGQPREPQVYVYPPSREEMTKNQVSLTCLVKGFYPSDIAVEWESNGQPENNYKTTPPVLDSDGSFALVSKLTVDKSRWQQGNVFSCSVMHEALHNHYTQKSLSLSPG
heavy: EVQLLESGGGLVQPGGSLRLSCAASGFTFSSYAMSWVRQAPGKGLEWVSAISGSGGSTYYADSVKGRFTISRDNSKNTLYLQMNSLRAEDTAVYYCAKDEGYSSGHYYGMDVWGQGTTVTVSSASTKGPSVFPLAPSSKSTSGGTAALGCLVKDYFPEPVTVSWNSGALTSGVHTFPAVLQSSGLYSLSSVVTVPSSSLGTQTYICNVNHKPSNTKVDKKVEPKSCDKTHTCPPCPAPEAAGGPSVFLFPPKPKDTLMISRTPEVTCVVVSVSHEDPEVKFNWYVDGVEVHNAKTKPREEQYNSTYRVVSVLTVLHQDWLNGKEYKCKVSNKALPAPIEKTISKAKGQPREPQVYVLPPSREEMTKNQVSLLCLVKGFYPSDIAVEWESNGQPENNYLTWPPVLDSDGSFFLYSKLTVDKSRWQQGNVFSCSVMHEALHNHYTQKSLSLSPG
light: B1 light
notes: IgG1 BCMAxCD3; HC1: CD3B2030-N106G LH scFv-Fc; also called BC3B118.001; B2030 LH NtoG
B3: BC3B109 (bispecific antibody, human IgG1, kappa, L234A L235A)
chain: B1 chain with I48M, A106Q, W187L
heavy: not shown
light: B1 light
notes: IgG1 BCMAxCD3; HC1: CD3B2051-N106Q HL scFv-Fc; also called BC3B109.001; B2051 HL NtoQ
B4: BC3B117 (bispecific antibody, human IgG1, kappa, L234A L235A)
chain: B2 chain with G232A
heavy: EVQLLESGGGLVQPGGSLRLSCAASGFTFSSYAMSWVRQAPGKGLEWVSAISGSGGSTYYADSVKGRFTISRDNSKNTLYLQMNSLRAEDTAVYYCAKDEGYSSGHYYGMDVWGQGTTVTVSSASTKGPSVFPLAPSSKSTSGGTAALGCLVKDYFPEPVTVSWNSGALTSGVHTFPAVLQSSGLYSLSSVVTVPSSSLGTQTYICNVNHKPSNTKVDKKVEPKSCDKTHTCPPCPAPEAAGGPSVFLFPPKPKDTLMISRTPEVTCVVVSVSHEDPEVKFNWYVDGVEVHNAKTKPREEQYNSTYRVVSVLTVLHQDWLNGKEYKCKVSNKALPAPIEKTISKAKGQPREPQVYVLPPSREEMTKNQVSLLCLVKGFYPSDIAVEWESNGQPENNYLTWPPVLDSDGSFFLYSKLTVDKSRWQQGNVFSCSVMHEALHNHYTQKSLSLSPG
light: B1 light
notes: IgG1 BCMAxCD3; HC1: CD3B2030-N106A LH scFv-Fc; also called BC3B117.001; B2030 LH NtoA
B5: BC3B122 (bispecific antibody, human IgG1, kappa, L234A L235A)
chain: B2 chain with W46L, I174M
heavy: not shown
light: B1 light
notes: IgG1 BCMAxCD3; HC1: CD3B2051-N106G LH scFv-Fc; also called BC3B122.001; B2051 LH NtoG
B6: BC3B53 (bispecific antibody, human IgG1, kappa, L234A L235A)
chain: B2 chain with G232Q
heavy: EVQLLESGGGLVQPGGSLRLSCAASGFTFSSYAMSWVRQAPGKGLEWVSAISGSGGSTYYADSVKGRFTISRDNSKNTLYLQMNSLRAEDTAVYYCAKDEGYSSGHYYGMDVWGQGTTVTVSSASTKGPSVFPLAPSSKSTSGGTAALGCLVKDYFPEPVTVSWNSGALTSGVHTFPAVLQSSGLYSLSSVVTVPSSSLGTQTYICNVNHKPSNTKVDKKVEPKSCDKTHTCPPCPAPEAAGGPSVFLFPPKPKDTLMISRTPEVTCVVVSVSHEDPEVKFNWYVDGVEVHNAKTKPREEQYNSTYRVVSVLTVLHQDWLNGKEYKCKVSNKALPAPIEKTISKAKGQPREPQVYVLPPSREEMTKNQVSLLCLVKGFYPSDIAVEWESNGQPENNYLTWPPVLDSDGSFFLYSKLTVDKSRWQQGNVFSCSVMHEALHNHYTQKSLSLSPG
light: B1 light
notes: IgG1 BCMAxCD3; HC1: CD3B2030-N106Q LH scFv-Fc; also called BC3B53.001; B2030 LH NtoQ
B7: BC3B126 (bispecific antibody, human IgG1, kappa, L234A L235A)
chain: B2 chain with K164R, I174M, N187A, G232A
heavy: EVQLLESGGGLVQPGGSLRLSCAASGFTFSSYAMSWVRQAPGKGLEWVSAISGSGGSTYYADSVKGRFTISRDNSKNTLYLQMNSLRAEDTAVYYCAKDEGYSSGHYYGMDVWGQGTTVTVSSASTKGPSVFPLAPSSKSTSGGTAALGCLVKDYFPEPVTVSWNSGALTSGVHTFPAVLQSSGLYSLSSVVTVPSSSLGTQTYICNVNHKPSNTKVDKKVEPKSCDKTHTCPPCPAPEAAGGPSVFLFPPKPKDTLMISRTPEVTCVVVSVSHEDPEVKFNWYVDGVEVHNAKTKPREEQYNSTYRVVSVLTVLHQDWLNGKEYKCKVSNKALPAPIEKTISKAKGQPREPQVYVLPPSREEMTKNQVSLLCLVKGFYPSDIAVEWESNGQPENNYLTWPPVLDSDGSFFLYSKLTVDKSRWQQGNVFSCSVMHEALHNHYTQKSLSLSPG
light: B1 light
notes: IgG1 BCMAxCD3; HC1: CD3B2089-N106A LH scFv-Fc; also called BC3B126.001; B2089 LH NtoA
B8: BC3B108 (bispecific antibody, human IgG1, kappa, L234A L235A)
chain: B1 chain with I48M, A106G, W187L
heavy: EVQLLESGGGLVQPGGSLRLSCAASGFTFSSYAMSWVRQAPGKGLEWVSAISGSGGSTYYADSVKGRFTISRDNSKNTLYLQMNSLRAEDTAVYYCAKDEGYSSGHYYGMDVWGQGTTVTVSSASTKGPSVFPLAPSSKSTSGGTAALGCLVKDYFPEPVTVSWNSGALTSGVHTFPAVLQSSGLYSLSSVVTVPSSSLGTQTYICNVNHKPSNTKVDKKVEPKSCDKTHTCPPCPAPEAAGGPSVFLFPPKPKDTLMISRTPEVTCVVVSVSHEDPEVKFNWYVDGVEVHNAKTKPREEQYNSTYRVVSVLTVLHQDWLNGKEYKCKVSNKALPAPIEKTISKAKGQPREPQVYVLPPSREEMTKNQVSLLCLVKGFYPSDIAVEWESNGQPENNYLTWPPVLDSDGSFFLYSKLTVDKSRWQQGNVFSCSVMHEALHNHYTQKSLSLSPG
light: B1 light
notes: IgG1 BCMAxCD3; HC1: CD3B2051-N106G HL scFv-Fc; also called BC3B108.001; B2051 HL NtoG
B9: BC3B115 (bispecific antibody, human IgG1, kappa, L234A L235A)
chain: B1 chain with K38R, I48M, N61A, A106S
heavy: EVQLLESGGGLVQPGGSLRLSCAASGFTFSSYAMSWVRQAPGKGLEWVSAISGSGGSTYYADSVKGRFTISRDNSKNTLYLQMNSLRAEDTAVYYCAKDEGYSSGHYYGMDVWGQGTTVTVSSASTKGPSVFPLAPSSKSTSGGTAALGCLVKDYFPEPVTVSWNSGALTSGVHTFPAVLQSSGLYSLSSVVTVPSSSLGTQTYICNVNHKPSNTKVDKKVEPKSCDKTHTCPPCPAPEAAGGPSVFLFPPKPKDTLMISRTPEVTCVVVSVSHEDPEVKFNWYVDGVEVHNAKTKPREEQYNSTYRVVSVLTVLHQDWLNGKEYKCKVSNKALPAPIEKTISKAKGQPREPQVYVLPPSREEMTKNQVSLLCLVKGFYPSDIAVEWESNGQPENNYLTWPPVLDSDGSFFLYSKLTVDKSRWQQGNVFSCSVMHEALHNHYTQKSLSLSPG
light: B1 light
notes: IgG1 BCMAxCD3; HC1: CD3B2089-N106S HL scFv-Fc; also called BC3B115.001; B2089 HL NtoS
B10: BC3B107 (bispecific antibody, human IgG1, kappa, L234A L235A)
chain: B1 chain with I48M, W187L
heavy: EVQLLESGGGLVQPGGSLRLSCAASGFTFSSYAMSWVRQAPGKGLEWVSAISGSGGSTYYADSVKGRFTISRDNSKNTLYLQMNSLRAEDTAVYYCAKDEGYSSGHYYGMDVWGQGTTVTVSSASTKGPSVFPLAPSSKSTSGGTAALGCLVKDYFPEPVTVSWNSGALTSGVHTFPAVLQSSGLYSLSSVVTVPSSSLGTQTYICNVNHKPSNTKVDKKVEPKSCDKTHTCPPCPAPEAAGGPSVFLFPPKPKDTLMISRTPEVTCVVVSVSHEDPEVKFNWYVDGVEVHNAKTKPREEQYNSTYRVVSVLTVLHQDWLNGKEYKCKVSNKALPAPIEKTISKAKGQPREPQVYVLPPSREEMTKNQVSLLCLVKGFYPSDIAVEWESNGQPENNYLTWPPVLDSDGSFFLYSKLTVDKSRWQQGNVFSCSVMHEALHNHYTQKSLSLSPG
light: B1 light
notes: IgG1 BCMAxCD3; HC1: CD3B2051-N106A HL scFv-Fc; also called BC3B107.001; B2051 HL NtoA
B11: BC3B113 (bispecific antibody, human IgG1, kappa, L234A L235A)
chain: B1 chain with K38R, I48M, N61A, A106G
heavy: not shown
light: B1 light
notes: IgG1 BCMAxCD3; HC1: CD3B2089-N106G HL scFv-Fc; also called BC3B113.001; B2089 HL NtoG
B12: BC3B105 (bispecific antibody, human IgG1, kappa, L234A L235A)
chain: B1 chain with A106S
heavy: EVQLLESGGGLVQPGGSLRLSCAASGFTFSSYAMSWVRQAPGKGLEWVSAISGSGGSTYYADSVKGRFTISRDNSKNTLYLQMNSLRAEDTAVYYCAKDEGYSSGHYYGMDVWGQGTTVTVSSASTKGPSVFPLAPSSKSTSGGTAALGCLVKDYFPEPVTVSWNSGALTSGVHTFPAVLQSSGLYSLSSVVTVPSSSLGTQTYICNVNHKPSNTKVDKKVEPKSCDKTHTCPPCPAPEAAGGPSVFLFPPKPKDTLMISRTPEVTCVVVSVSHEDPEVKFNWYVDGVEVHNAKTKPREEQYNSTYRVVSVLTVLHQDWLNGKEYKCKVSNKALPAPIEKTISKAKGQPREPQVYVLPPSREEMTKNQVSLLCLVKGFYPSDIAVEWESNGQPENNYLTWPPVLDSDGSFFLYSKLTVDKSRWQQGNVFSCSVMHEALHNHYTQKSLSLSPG
light: B1 light
notes: IgG1 BCMAxCD3; HC1: CD3B2030-N106S HL scFv-Fc; also called BC3B105.001; B2030 HL NtoS
B13: BC3B123 (bispecific antibody, human IgG1, kappa, L234A L235A)
chain: B2 chain with W46L, I174M, G232Q
heavy: not shown
light: B1 light
notes: IgG1 BCMAxCD3; HC1: CD3B2051-N106Q LH scFv-Fc; also called BC3B123.001; B2051 LH NtoQ
B14: BC3B119 (bispecific antibody, human IgG1, kappa, L234A L235A)
chain: B2 chain with G232S
heavy: not shown
light: B1 light
notes: IgG1 BCMAxCD3; HC1: CD3B2030-N106S LH scFv-Fc; also called BC3B119.001; B2030 LH NtoS
B15: BC3B104 (bispecific antibody, human IgG1, kappa, L234A L235A)
chain: B1 chain with A106G
heavy: not shown
light: B1 light
notes: IgG1 BCMAxCD3; HC1: CD3B2030-N106G HL scFv-Fc; also called BC3B104.001; B2030 HL NtoG
B16: BC3B114 (bispecific antibody, human IgG1, kappa, L234A L235A)
chain: B1 chain with K38R, I48M, N61A, A106Q
heavy: not shown
light: B1 light
notes: IgG1 BCMAxCD3; HC1: CD3B2089-N106Q HL scFv-Fc; also called BC3B114.001; B2089 HL NtoQ
B17: BC3B121 (bispecific antibody, human IgG1, kappa, L234A L235A)
chain: B2 chain with W46L, I174M, G232A
heavy: not shown
light: B1 light
notes: IgG1 BCMAxCD3; HC1: CD3B2051-N106A LH scFv-Fc; also called BC3B121.001; B2051 LH NtoA
B18: BC3B128 (bispecific antibody, human IgG1, kappa, L234A L235A)
chain: B2 chain with K164R, I174M, N187A, G232Q
heavy: not shown
light: B1 light
notes: IgG1 BCMAxCD3; HC1: CD3B2089-N106Q LH scFv-Fc; also called BC3B128.001; B2089 LH NtoQ
B19: BC3B110 (bispecific antibody, human IgG1, kappa, L234A L235A)
chain: B1 chain with I48M, A106S, W187L
heavy: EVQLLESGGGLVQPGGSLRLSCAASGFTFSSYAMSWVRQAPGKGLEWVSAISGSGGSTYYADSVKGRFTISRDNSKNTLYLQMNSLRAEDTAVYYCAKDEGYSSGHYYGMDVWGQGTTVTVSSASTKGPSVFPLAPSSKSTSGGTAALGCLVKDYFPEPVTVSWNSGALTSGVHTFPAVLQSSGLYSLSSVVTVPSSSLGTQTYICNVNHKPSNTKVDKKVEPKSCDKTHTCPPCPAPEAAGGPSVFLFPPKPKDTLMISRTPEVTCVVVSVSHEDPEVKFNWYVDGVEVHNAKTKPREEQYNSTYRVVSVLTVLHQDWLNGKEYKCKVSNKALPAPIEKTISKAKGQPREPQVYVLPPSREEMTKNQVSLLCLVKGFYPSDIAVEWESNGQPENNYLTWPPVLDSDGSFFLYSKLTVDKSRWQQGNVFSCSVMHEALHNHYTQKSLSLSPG
light: B1 light
notes: IgG1 BCMAxCD3; HC1: CD3B2051-N106S HL scFv-Fc; also called BC3B110.001; B2051 HL NtoS
B20: BC3B127 (bispecific antibody, human IgG1, kappa, L234A L235A)
chain: B2 chain with K164R, I174M, N187A
heavy: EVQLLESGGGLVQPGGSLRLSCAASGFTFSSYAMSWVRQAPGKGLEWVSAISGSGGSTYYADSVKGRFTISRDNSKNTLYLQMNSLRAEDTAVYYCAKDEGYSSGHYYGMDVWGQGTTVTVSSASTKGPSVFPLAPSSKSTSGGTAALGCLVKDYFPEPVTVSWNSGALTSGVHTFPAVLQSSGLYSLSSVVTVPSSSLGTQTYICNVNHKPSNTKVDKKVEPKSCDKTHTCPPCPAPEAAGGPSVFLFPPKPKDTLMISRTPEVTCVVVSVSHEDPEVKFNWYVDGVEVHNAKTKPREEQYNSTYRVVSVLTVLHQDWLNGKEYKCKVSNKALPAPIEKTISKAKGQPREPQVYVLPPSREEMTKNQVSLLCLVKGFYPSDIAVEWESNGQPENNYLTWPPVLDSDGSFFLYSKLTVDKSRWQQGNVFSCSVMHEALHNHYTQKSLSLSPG
light: B1 light
notes: IgG1 BCMAxCD3; HC1: CD3B2089-N106G LH scFv-Fc; also called BC3B127.001; B2089 LH NtoG

Molecular target: T1, Human CD3 epsilon (CD3ε), on primary human pan T cells (human, UniProt P07766 23-207)
Test: cell-based or functional assay

| Binder | H929 Killing EC50 [nM] |
| --- | --- |
| B1 | 0.0921 |
| B2 | 0.745 |
| B3 | 0.0426 |
| B4 | 0.149 |
| B5 | 4.36 |
| B6 | 0.0278 |
| B7 | 0.182 |
| B8 | 0.0853 |
| B9 | 0.155 |
| B10 | 0.0415 |
| B11 | 0.0443 |
| B12 | 0.172 |
| B13 | 0.069 |
| B14 | 10 |
| B15 | 0.237 |
| B16 | 0.0126 |
| B17 | 0.1 |
| B18 | 0.0354 |
| B19 | 0.78 |
| B20 | 0.806 |

Molecular target: T1, Human CD3 epsilon (CD3ε), on primary …
Test: cell-based or functional assay
Remark: another data set of the same source

| Binder | EC50, Cytotoxicity [nM] |
| --- | --- |
| B1 | 0.0921 |
| B2 | 0.745 |
| B3 | 0.0426 |
| B4 | 0.149 |
| B5 | 4.36 |
| B6 | 0.0278 |
| B7 | 0.182 |
| B8 | 0.0853 |
| B9 | 0.155 |
| B10 | 0.0415 |
| B11 | 0.0443 |
| B12 | 0.172 |
| B13 | 0.069 |
| B14 | 10 |
| B15 | 0.237 |
| B16 | 0.0126 |
| B17 | 0.1 |
| B18 | 0.0354 |
| B19 | 0.781 |
| B20 | 0.806 |

Molecular target: T1, Human CD3 epsilon (CD3ε), on primary …
Test: flow cytometry on human T cells, anti-human IgG Fc A647 detection
Procedure, shortened: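 Binding read by flow cytometry on live singlet cells (SYTOX green exclusion) after A647 anti-human IgG Fc secondary at 2 ug/mL, 30 min on ice. Antibody dilution series was first incubated 1 hr at 37 °C with thawed primary human pan T cells, 50,000 per well.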

| EC50 [nM] | Binder |
| --- | --- |
| 4.6 | B1 |
| 257 | B2 |
| 13.8 | B3 |
| 60.9 | B4 |
| 300 | B5 |
| 19.6 | B6 |
| 177 | B7 |
| 11 | B8 |
| 24 | B9 |
| 8.6 | B10 |
| 11.1 | B11 |
| 20.7 | B12 |
| 65 | B13 |
| 300 | B14 |
| 64.2 | B15 |
| 3.2 | B16 |
| 73.3 | B17 |
| 42.9 | B18 |
| 31.2 | B19 |
| 300 | B20 |
